Measured values published in patent publication US12098186.

Biological target: SARS-CoV-2 receptor-binding domain (RBD) of the spike protein (SARS-CoV-2) (UniProt P0DTC2)

With Bamlanivimab/ LY-CoV555 (antibody) as the substance, how does the Kd read?
Its Kd is 3.5 nM.
